Test results published in article PMC12416549 (2024).
Residue numbers refer to the chain shown, from its start. In names and notes the source's numbering stands. One block for each binder: values may come before it.

Biological target: T1, TNFR1 (Homo sapiens, UniProt P19438)
T1 chain: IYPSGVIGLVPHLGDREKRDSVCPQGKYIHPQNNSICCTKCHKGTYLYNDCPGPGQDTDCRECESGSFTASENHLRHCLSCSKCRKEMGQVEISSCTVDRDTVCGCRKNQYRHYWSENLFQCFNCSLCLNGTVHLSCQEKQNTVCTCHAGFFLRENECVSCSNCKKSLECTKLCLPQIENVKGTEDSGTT
Test: yeast display SC50

- apparent Kd (screen): 0.869 nM
B1: A30V (designed binder)
chain: SMEEEVEKAAKEYEKKKKEAIEKHLEKLKVKDKEAAERFLKELEEAAKEYAKDEAKTMSEEEAKRRAKKYKEKVLLSELSEEEQKEIKEAEEKLVRTILKYVEEAAK

- apparent Kd (screen): 0.446 nM
B2: K16Y (designed binder)
chain: B1 chain with K16Y, V30A

- apparent Kd (screen): 0.653 nM
B3: T97H (designed binder)
chain: B1 chain with V30A, T97H

- apparent Kd (screen): 0.593 nM
B4: E44R (designed binder)
chain: B1 chain with V30A, E44R

- apparent Kd (screen): 12.5 nM
B5: I87W (designed binder)
chain: B1 chain with V30A, I87W

- apparent Kd (screen): 0.446 nM
B6: K11E (designed binder)
chain: B1 chain with K11E, V30A

- apparent Kd (screen): 0.446 nM
B7: A35L (designed binder)
chain: B1 chain with V30A, A35L

- apparent Kd (screen): 2.25 nM
B8: V102R (designed binder)
chain: B1 chain with V30A, V102R

- apparent Kd (screen): 0.956 nM
B9: K93E (designed binder)
chain: B1 chain with V30A, K93E

- apparent Kd (screen): 0.539 nM
B10: V6A (designed binder)
chain: B1 chain with V6A, V30A

- apparent Kd (screen): 0.49 nM
B11: A46G (designed binder)
chain: B1 chain with V30A, A46G

- apparent Kd (screen): 0.405 nM
B12: T97F (designed binder)
chain: B1 chain with V30A, T97F

- apparent Kd (screen): 0.539 nM
B13: E19W (designed binder)
chain: B1 chain with E19W, V30A

- apparent Kd (screen): 6.43 nM
B14: R65C (designed binder)
chain: B1 chain with V30A, R65C

- apparent Kd (screen): 5.31 nM
B15: V95P (designed binder)
chain: B1 chain with V30A, V95P

- apparent Kd (screen): 0.539 nM
B16: E12R (designed binder)
chain: B1 chain with E12R, V30A

- apparent Kd (screen): 6.43 nM
B17: V95A (designed binder)
chain: B1 chain with V30A, V95A

- apparent Kd (screen): 1.16 nM
B18: E60R (designed binder)
chain: B1 chain with V30A, E60R

- apparent Kd (screen): 0.956 nM
B19: M2E (designed binder)
chain: B1 chain with M2E, V30A

- apparent Kd (screen): 0.446 nM
B20: Y101C (designed binder)
chain: B1 chain with V30A, Y101C

- apparent Kd (screen): 5.84 nM
B21: Q84M (designed binder)
chain: B1 chain with V30A, Q84M

- apparent Kd (screen): 0.593 nM
B22: E60H (designed binder)
chain: B1 chain with V30A, E60H

- apparent Kd (screen): 2.05 nM
B23: E60P (designed binder)
chain: B1 chain with V30A, E60P

- apparent Kd (screen): 0.304 nM
B24: T57W (designed binder)
chain: B1 chain with V30A, T57W

- apparent Kd (screen): 0.49 nM
B25: L43T (designed binder)
chain: B1 chain with V30A, L43T

- apparent Kd (screen): 0.49 nM
B26: I21G (designed binder)
chain: B1 chain with I21G, V30A

- apparent Kd (screen): 0.446 nM
B27: K69S (designed binder)
chain: B1 chain with V30A, K69S

- apparent Kd (screen): 1.27 nM
B28: E72N (designed binder)
chain: B1 chain with V30A, E72N

- apparent Kd (screen): 2.73 nM
B29: D53R (designed binder)
chain: B1 chain with V30A, D53R

- apparent Kd (screen): 3 nM
B30: E103L (designed binder)
chain: B1 chain with V30A, E103L

- apparent Kd (screen): 2.73 nM
B31: A106V (designed binder)
chain: B1 chain with V30A, A106V

- apparent Kd (screen): 1.27 nM
B32: E61A (designed binder)
chain: B1 chain with V30A, E61A

- apparent Kd (screen): 0.49 nM
B33: A9S (designed binder)
chain: B1 chain with A9S, V30A

- apparent Kd (screen): 0.49 nM
B34: S1T (designed binder)
chain: B1 chain with S1T, V30A

- apparent Kd (screen): 0.718 nM
B35: E81A (designed binder)
chain: B1 chain with V30A, E81A

- apparent Kd (screen): 3 nM
B36: K100C (designed binder)
chain: B1 chain with V30A, K100C

- apparent Kd (screen): 2.48 nM
B37: E45N (designed binder)
chain: B1 chain with V30A, E45N

- apparent Kd (screen): 0.956 nM
B38: K8Q (designed binder)
chain: B1 chain with K8Q, V30A

- apparent Kd (screen): 0.446 nM
B39: A90N (designed binder)
chain: B1 chain with V30A, A90N

- apparent Kd (screen): 1.05 nM
B40: K73Q (designed binder)
chain: B1 chain with V30A, K73Q

- apparent Kd (screen): 13.8 nM
B41: A105W (designed binder)
chain: B1 chain with V30A, A105W

- apparent Kd (screen): 0.0498 nM
B42: I98Q (designed binder)
chain: B1 chain with V30A, I98Q

- apparent Kd (screen): 3.3 nM
B43: A10H (designed binder)
chain: B1 chain with A10H, V30A

- apparent Kd (screen): 0.79 nM
B44: A36C (designed binder)
chain: B1 chain with V30A, A36C

- apparent Kd (screen): 8.56 nM
B45: Y13V (designed binder)
chain: B1 chain with Y13V, V30A

- apparent Kd (screen): 0.956 nM
B46: K41T (designed binder)
chain: B1 chain with V30A, K41T

- apparent Kd (screen): 1.86 nM
B47: I98D (designed binder)
chain: B1 chain with V30A, I98D

- apparent Kd (screen): 18.3 nM
B48: R66L (designed binder)
chain: B1 chain with V30A, R66L

- apparent Kd (screen): 13.8 nM
B49: E91L (designed binder)
chain: B1 chain with V30A, E91L

- apparent Kd (screen): 0.539 nM
B50: T97M (designed binder)
chain: B1 chain with V30A, T97M

- apparent Kd (screen): 0.446 nM
B51: E82G (designed binder)
chain: B1 chain with V30A, E82G

- apparent Kd (screen): 1.4 nM
B52: L25K (designed binder)
chain: B1 chain with L25K, V30A

- apparent Kd (screen): 0.446 nM
B53: E72F (designed binder)
chain: B1 chain with V30A, E72F

- apparent Kd (screen): 18.3 nM
B54: K85P (designed binder)
chain: B1 chain with V30A, K85P

- apparent Kd (screen): 0.49 nM
B55: K48G (designed binder)
chain: B1 chain with V30A, K48G

- apparent Kd (screen): 1.05 nM
B56: D32K (designed binder)
chain: B1 chain with V30A, D32K

- apparent Kd (screen): 2.25 nM
B57: E89T (designed binder)
chain: B1 chain with V30A, E89T

- apparent Kd (screen): 4.39 nM
B58: E49P (designed binder)
chain: B1 chain with V30A, E49P

- apparent Kd (screen): 12.5 nM
B59: E22P (designed binder)
chain: B1 chain with E22P, V30A
